In patent publication US20230083243A1 (VEGA THERAPEUTICS, published 2023):
Positions count from the first letter of the chain named. One block for each binder: values may come before it.

Key:
[1] = target: T1, recombinant heavy chain Protein S (human, UniProt P07225 42-296); assay: ELISA; plate coated with recombinant Protein S heavy chain; 1 mM CaCl2
T1 construct: Fragment of Protein S spanning amino acids 42-296, expressed and purified from HEK293 cells; also called Protein S heavy chain; heavy chain of Protein S
T1 sequence: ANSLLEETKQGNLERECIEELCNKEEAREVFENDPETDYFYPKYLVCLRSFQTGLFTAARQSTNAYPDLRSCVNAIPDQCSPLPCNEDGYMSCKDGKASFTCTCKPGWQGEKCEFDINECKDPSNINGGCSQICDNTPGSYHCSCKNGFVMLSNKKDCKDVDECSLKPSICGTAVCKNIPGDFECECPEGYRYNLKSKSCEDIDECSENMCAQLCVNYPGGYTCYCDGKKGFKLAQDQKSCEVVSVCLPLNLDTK
Procedure: (§1) Binding to the heavy chain of Protein S was determined using an ELISA based method. Briefly, high binding ELISA plates were coated with recombinant heavy chain Protein S expressed and purified from HEK293 cells. The “heavy chain” of Protein S represents a fragment of Protein S spanning amino acids 42-296. The coated plate was blocked with 1% casein solution. Then, buffer containing […] of antibody was applied to the well with buffer containing 1 mM calcium chloride.

human Protein S [2] = target: T2, human Protein S (human, UniProt P07225 42-676); assay: ELISA; plate coated with human Protein S; 1 µg/ml antibody; 1 mM calcium chloride
T2 construct: also called ProS; ProS1
T2 sequence: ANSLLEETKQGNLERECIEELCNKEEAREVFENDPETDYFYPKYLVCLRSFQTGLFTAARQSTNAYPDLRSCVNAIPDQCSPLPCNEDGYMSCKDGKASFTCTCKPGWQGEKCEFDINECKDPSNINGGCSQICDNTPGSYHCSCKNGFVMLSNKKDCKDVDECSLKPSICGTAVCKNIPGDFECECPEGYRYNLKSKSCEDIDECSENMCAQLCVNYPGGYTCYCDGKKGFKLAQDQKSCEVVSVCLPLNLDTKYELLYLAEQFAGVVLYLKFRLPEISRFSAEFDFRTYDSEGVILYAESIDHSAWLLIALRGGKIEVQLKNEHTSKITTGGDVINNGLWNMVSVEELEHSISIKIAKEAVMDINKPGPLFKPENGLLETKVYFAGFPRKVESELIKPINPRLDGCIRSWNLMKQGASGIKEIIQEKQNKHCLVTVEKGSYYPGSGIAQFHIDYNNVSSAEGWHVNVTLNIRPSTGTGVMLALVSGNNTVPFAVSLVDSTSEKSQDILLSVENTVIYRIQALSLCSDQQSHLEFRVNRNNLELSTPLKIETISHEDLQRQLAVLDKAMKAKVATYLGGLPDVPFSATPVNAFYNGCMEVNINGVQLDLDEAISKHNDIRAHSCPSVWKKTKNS
Procedure: (§2) Calcium dependence of binding was determined using an ELISA based method. Briefly, high binding ELISA plates were coated with human Protein S. Then, buffer containing 1 μg/ml of antibody was applied to the well with either buffer containing 1 mM EDTA or 1 mM calcium chloride.

human Protein S [3] = target: T2, human Protein S; assay: ELISA; plate coated with human Protein S; 1 µg/ml antibody; 1 mM EDTA
Procedure: as §2

[4] = target: T1, recombinant heavy chain Protein S; assay: ELISA on recombinant Protein S heavy chain
Procedure: as §1

human Protein S [5] = target: T2, human Protein S; assay: cell-based or functional assay
human Protein S [6] = target: T2, human Protein S; assay: BLI Octet; antibody on anti-human Fc probe; Protein S 7.81-500 nM; 4 mM CaCl2
Procedure: (§3) Binding characteristics of the Protein S antibodies were also further characterized using Octet. Using the Octet System (Sartorius), the binding of each antibody to both human and cynomolgus monkey (“cyno” in Table 10) Protein S was determined. The human Fc antibodies were immobilized onto anti-human Fc capture probes by placing the probes into 10 μg/ml antibody solution in 10 mg/ml bovine serum albumin, 20 mM Tris pH 7.0, 150 mM NaCl, and 4 mM calcium chloride. […] Next, the probes were placed into buffer and the dissociation rates were measured.

[7] = target: T3, cynomolgus monkey Protein S (cynomolgus monkey); assay: as above
T3 construct: also called cyno Protein S
Procedure: as §3

Protein S-C4BP complex = target: T4, Protein S-C4BP complex (human, UniProt P04003 49-597; P20851 18-252); assay: BLI Octet; antibody on anti-human Fc probe
T4 construct: C4BP preparation from Complement Technologies that contains Protein S precomplexed to human C4BP; also called ProS-C4BP Complex; C4BP-Protein S complex
T4 sequence 1: T2 sequence
T4 sequence 2: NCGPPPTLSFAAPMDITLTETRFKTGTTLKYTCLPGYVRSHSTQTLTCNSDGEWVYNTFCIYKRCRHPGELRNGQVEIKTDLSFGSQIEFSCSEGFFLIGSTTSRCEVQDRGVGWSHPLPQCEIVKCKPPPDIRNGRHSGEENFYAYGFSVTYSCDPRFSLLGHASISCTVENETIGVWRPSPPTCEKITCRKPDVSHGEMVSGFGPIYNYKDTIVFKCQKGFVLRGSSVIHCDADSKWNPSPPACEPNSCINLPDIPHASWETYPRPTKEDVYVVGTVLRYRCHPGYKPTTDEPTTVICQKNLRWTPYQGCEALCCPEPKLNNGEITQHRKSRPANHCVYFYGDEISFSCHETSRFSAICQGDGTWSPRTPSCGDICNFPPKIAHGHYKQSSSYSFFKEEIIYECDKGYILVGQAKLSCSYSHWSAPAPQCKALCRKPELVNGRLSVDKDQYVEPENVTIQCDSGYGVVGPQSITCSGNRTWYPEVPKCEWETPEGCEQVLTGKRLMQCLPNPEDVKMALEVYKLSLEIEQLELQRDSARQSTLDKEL
T4 sequence 3: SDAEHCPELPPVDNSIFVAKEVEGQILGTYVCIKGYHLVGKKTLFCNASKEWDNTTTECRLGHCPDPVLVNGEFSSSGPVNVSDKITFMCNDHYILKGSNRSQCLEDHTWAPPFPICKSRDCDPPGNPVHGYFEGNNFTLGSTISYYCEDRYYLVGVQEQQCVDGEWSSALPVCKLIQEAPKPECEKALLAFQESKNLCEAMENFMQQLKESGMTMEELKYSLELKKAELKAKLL
Procedure: The Octet assay was used to determine the capability of the Protein S antibodies provided herein to bind to Protein S either alone, or when complexed to C4BP.
Using the Octet System (Sartorius), the binding of each antibody to both Protein S and Protein S in complex with C4BP was determined. It had previously been determined that the C4BP preparation from Complement Technologies contains Protein S precomplexed to human C4BP. Therefore, this preparation represented the Protein S-C4BP complex and plasma purified Protein S from Haematologic Technologies was used as the source of free Protein S. The human Fc antibodies were immobilized onto anti-human Fc capture probes by placing the probes into 10 μg/ml antibody solution in 10 mg/ml bovine serum albumin, 20 mM Tris pH 7.0, 150 mM NaCl, and 4 mM calcium chloride. Then the bound antibodies were placed into solutions containing either 75 μg/ml Protein S or 100 μg/ml C4BP (C4BP-Protein S complex).

B4: Antibody 35 (antibody, V domains shown)
VH: QLQLQESGPGLVKPSETLSLTCTVSGGSITNSNYYWGWIRQPPGKGLEWIGSVYYSGTTYYNPSLKSRVTISVDPSKNQFSLKLSSVTAADTAVYYCVRESESYYYYGSDVWGQGTTVTVSS
VL: DIQMTQSPSSLSASVGDRVTITCRASQGINNYLAWFQQKPGKAPKSLIYAASSLQSGVPSKFSGSGSGTDFTLTISSLQPEDFATYYCQQYNSYPRTFGQGTKVEIK
notes: Human variable region with rat Fc
Binding to heavy chain (OD) [1]: 0.08 OD
Binding to Protein S in CaCl2 (OD) (human Protein S [2]): 0.96 OD
Binding to Protein S in EDTA (OD) (human Protein S [3]): 0.11 OD
binding result [4]: no binding
IC50 APC (human Protein S [5]): 371 nM

B5: Antibody 29 (antibody, V domains shown)
VH: B4 VH
VL: B4 VL
notes: Same variable regions as Antibody 35
Kd (human Protein S [6]): 21.1 nM
koff (human Protein S [6]): 0.00173 s⁻¹
kon (human Protein S [6]): 81900 M⁻¹ s⁻¹
Kd [7]: 20 nM
koff [7]: 0.00177 s⁻¹
kon [7]: 88200 M⁻¹ s⁻¹
binding result (Protein S-C4BP complex): no binding (tested: 100 µg/ml C4BP (C4BP-Protein S complex))

B6: Antibody 30 (antibody, V domains shown)
VH: EVQLVESGGGLVKPGGSLRLSCAASGFTFSSYNMNWVRQAPGRGLDWVSSISSSSSYIYYADSVKGRFTISRDNAKNSLYLQMNTLRAEDTAVYYCARDEEWELLTGFDYWGQGTLVTVSS
VL: B4 VL with S53N, S60L, R96I, K103R, V104L
notes: Same variable regions as Antibody 36
Kd (human Protein S [6]): 11.5 nM
koff (human Protein S [6]): 0.000279 s⁻¹
kon (human Protein S [6]): 24200 M⁻¹ s⁻¹
Kd [7]: 20.9 nM
koff [7]: 0.00073 s⁻¹
kon [7]: 35000 M⁻¹ s⁻¹
binding result (Protein S-C4BP complex): no binding (tested: 100 µg/ml C4BP (C4BP-Protein S complex))

B7: Antibody 36 (antibody, V domains shown)
VH: B6 VH
VL: B4 VL with S53N, S60L, R96I, K103R, V104L
notes: as for B4
Binding to heavy chain (OD) [1]: 0.08 OD
Binding to Protein S in CaCl2 (OD) (human Protein S [2]): 0.6 OD
Binding to Protein S in EDTA (OD) (human Protein S [3]): 0.03 OD
binding result [4]: no binding
IC50 APC (human Protein S [5]): 15.3 nM
IC50 TFPI (human Protein S [5]): 6.05 nM

B9: Antibody 37 (antibody, V domains shown)
VH: EVQLVESGGGLVKPGGSLRLSCAASGISFSNAWMSWVRQAPGKGLEWVGRIKANPDGGTTDYAAPVKGRFTISRDDSKNTLYLQMNSLKTEDTAVYYCTTELDILLWFTSFDYWGQGTLVTVSS
VL: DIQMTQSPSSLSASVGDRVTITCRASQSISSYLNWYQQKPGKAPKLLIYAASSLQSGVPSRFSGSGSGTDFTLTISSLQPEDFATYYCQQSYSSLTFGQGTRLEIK
notes: Same variable regions as Antibody 38
Kd (human Protein S [6]): 0.382 nM
koff (human Protein S [6]): 8.32e-05 s⁻¹
kon (human Protein S [6]): 218000 M⁻¹ s⁻¹
Kd [7]: 0.672 nM
koff [7]: 0.000119 s⁻¹
kon [7]: 177000 M⁻¹ s⁻¹
binding result (Protein S-C4BP complex): no binding (tested: 100 µg/ml C4BP (C4BP-Protein S complex))

Continued, in another order:

Binding to heavy chain (OD) [1]: 0.11 OD
Binding to Protein S in CaCl2 (OD) (human Protein S [2]): 0.67 OD
Binding to Protein S in EDTA (OD) (human Protein S [3]): 0.53 OD
binding result [4]: no binding
IC50 APC (human Protein S [5]): 215 nM
B1: Antibody 42 (antibody, V domains shown)
VH: QVQLVQSGSEVKKPGASVKVSCKASGYTFTNYYIHWVRQAPGQGLEWMGIITPSGGTTSYAQKFQGRVTMTRDTSTNTVYMGLSSLRSEDTAMYYCARAGVQLDRRGWFDPWGQGTLVTVSS
VL: SYELTQPPSVSVSPGQTASITCSGDKLGDKYVFWYQQKPGQSPVLVIYQDSKRPSGIPERFSGSNSGNTATLTISGTQTMDEADYYCQAWDSSTVGFGGGTKLAVL
notes: as for B4

Binding to heavy chain (OD) [1]: 0.11 OD
Binding to Protein S in CaCl2 (OD) (human Protein S [2]): 0.51 OD
Binding to Protein S in EDTA (OD) (human Protein S [3]): 0.11 OD
binding result [4]: no binding
IC50 APC (human Protein S [5]): 11.9 nM
B2: Antibody 40 (antibody, V domains shown)
VH: EVQLVESGGGLVQPGGSLRLSCAASGFTFSSYSMNWVRQAPGKGLEWVAYISSSTRTIFYADSVKGRFTISRDNAKNSLYLQMNSLRDEDTAFYYCARERSAFDYWGQGTLVTVSS
VL: SYVLTQPPSVSVAPGQTARITCGGDNIGGKSVHWYQQKPGQAPVMVVYDDSDRPSGIPERFAGSNSGNTATLAISRVEAGDEADYYCQVWEITSDHPAFGGGTRLTVL
notes: as for B4

Kd (human Protein S [6]): 0.25 nM
koff (human Protein S [6]): 5.84e-05 s⁻¹
kon (human Protein S [6]): 234000 M⁻¹ s⁻¹
Kd [7]: 0.419 nM
koff [7]: 8.02e-05 s⁻¹
kon [7]: 191000 M⁻¹ s⁻¹
B3: Antibody 39 (antibody, V domains shown)
VH: B2 VH
VL: B2 VL
notes: Same variable regions as Antibody 40
binding result (Protein S-C4BP complex): no binding (tested: 100 µg/ml C4BP (C4BP-Protein S complex))

Binding to heavy chain (OD) [1]: 0.1 OD
Binding to Protein S in CaCl2 (OD) (human Protein S [2]): 1.38 OD
Binding to Protein S in EDTA (OD) (human Protein S [3]): 0.09 OD
binding result [4]: no binding
IC50 APC (human Protein S [5]): 84 nM
B8: Antibody 38 (antibody, V domains shown)
VH: B9 VH
VL: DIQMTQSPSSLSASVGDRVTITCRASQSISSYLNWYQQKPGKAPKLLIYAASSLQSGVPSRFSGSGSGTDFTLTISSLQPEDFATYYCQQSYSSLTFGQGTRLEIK
notes: as for B4
